PMC4273445 (eLife, 2014)

Assays:
Test in all cases: SPR
[1] = biological target: fHbp V3.28 Ala (at V1 Pro265) to Pro (N. meningitidis)
[2] = biological target: fHbp V2.21 Asp (at V1 Glu183) to Ala (N. meningitidis)
[3] = biological target: fHbp V3.28 Ala (at V1 Glu157) to Glu (N. meningitidis)
[4] = biological target: fHbp V3.28 Phe (at V1 Phe194) to Ala (N. meningitidis)
[5] = biological target: fHbp V3.28 Thr (at V1 Ser185) to Ala (N. meningitidis)
[6] = biological target: fHbp V2.21 Val (at V1 Val149) to Ala (N. meningitidis)
[7] = biological target: fHbp V2.21 Arg (at V1 Arg145) to Ala (N. meningitidis)
[8] = biological target: fHbp V3.28 Glu (at V1 Glu283) to Ala (N. meningitidis)
[9] = biological target: fHbp V3.28 Thr (at V1 Glu304) to Ala (N. meningitidis)
[10] = biological target: fHbp V3.28 Phe (at V1 Phe292) to Ala (N. meningitidis)
[11] = biological target: fHbp V1.1 His203 to Ala (N. meningitidis)
[12] = biological target: fHbp V3.28 Asn (at V1 Asn108) to Ala (N. meningitidis)
[13] = biological target: fHbp 2.P25 (N. meningitidis) (UniProt E6MV22)
[14] = biological target: fHbp V1.1 Val149 to Ala (N. meningitidis)
[15] = biological target: fHbp V1.1 Leu156 to Ala (N. meningitidis)
[16] = biological target: fHbp V3.28 Lys (at V1 Lys264) to Ala (N. meningitidis)
[17] = biological target: fHbp V3.28 Lys (at V1 Lys268) to Ala (N. meningitidis)
[18] = biological target: fHbp V2.21 Lys (at V1 His184) to Ala (N. meningitidis)
[19] = biological target: fHbp V3.28 Gln (at V1 Arg145) to Ala (N. meningitidis)
[20] = biological target: fHbp V2.21 Glu (at V1 Glu109) to Ala (N. meningitidis)
[21] = biological target: fHbp 1.P4 (N. meningitidis) (UniProt E6MV22)
[22] = biological target: fHbp V1.1 Asn108 to Ala (N. meningitidis)
[23] = biological target: fHbp V1.1 His313 to Ala (N. meningitidis)
[24] = biological target: fHbp V1.1 Ile147 to Ala (N. meningitidis)
[25] = biological target: fHbp V3.28 Val (at V1 Val149) to Ala (N. meningitidis)
[26] = biological target: fHbp V3.28 Asn (at V1 Gln180) to Ala (N. meningitidis)
[27] = biological target: fHbp 1.P292 (N. meningitidis) (UniProt E6MV22)
[28] = biological target: fHbp 1.P37 (N. meningitidis) (UniProt E6MV22)
[29] = biological target: fHbp V1.1 Glu109 to Ala (N. meningitidis)
[30] = biological target: fHbp 1.P74 (N. meningitidis) (UniProt E6MV22)
[31] = biological target: fHbp V3.28 Val (at V1 Ile196) to Ala (N. meningitidis)
[32] = biological target: fHbp V1.1 Gln193 to Ala (N. meningitidis)
[33] = biological target: fHbp 3.P30 (N. meningitidis) (UniProt E6MV22)
[34] = biological target: fHbp 1.P78 (N. meningitidis) (UniProt E6MV22)
[35] = biological target: fHbp 1.P13 (N. meningitidis) (UniProt E6MV22)
[36] = biological target: fHbp V3.28 Glu (at V1 Asp262) to Ala (N. meningitidis)
[37] = biological target: fHbp V2.21 Arg (at V1 Arg106) to Ala (N. meningitidis)
[38] = biological target: fHbp 1.P249 (N. meningitidis) (UniProt E6MV22)
[39] = biological target: fHbp V2.21 His (at V1 His248) to Ala (N. meningitidis)
[40] = biological target: fHbp V3.28 Lys (at V1 His184) to Ala (N. meningitidis)
[41] = biological target: fHbp V3.28 Gly (at V1 Glu109) to Ala (N. meningitidis)
[42] = biological target: fHbp V1.1 Leu289 to Ala (N. meningitidis)
[43] = biological target: fHbp 2.P22 (N. meningitidis) (UniProt E6MV22)
[44] = biological target: fHbp V3.28 Leu (at V1 Phe174) to Ala (N. meningitidis)
[45] = biological target: fHbp 2.P16 (N. meningitidis) (UniProt E6MV22)
[46] = biological target: fHbp 2.P23 (N. meningitidis) (UniProt E6MV22)
[47] = biological target: fHbp V2.21 Pro (at V1 Ser182) to Ala (N. meningitidis)
[48] = biological target: fHbp 1.P10 (N. meningitidis) (UniProt E6MV22)

CFH67, CCP domains 6 and 7 of complement factor H, sequence (P08603 321-443): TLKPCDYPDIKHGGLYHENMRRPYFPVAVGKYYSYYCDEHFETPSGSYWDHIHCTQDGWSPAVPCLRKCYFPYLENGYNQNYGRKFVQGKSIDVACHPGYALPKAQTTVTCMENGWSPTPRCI

“CFH67, CCP domains 6 and 7 of complement factor H (from UniProt P08603 321-443) (domain or fragment)” gave a Kd [1] of 3.76 nM, a Kd [2] of 4.29 nM and a Kd [3] of 37.5 nM. The Kd [4] was 4.25 nM, the Kd [5] was 4.42 nM and the Kd [6] was 6.9 nM. The Kd [7] was 0.408 nM, the Kd [8] was 11.9 nM and the Kd [9] was 11.7 nM. For the same substance, the Kd [10] was 1.97 nM, the Kd [11] was 1.8 nM and the Kd [12] was 3.71 nM. The Kd [13] was 0.346 nM, the Kd [14] was 9.28 nM and the Kd [15] was 60.5 nM. For the same substance, the Kd [16] was 21.1 nM, the Kd [17] was 2.61 nM and the Kd [18] was 3.15 nM. It also gave a Kd [19] of 0.621 nM, a Kd [20] of 2.34 nM and a Kd [21] of 3.94 nM. For the same substance, the Kd [22] was 3.73 nM, the Kd [23] was 23.5 nM and the Kd [24] was 17.3 nM. The Kd [25] was 6.81 nM, the Kd [26] was 8.49 nM and the Kd [27] was 7.74 nM. It also gave a Kd [28] of 1.11 nM, a Kd [29] of 2.93 nM and a Kd [30] of 5.14 nM. It also gave a Kd [31] of 11.6 nM, a Kd [32] of 6.66 nM and a Kd [33] of 1.97 nM. It also gave a Kd [34] of 10.5 nM, a Kd [35] of 10.7 nM and a Kd [36] of 6.4 nM. It also gave a Kd [37] of 5.99 nM, a Kd [38] of 5.36 nM and a Kd [39] of 1.92 nM. The Kd [40] was 2.76 nM, the Kd [41] was 2.82 nM and the Kd [42] was 1.44 nM. For the same substance, the Kd [43] was 2.13 nM, the Kd [44] was 4.8 nM and the Kd [45] was 3.46 nM. The Kd [46] was 1.99 nM, the Kd [47] was 7.98 nM and the Kd [48] was 15.2 nM.

With “CFHR3_(12), the first two (N-terminal) CCP domains of complement factor H-related 3 (from UniProt Q02985 19-330) (domain or fragment)” the Kd [1] was 4.82 nM, the Kd [2] was 4.45 nM and the Kd [3] was 4.35 nM. For the same substance, the Kd [4] was 5.15 nM, the Kd [5] was 3.76 nM and the Kd [6] was 5.82 nM. For the same substance, the Kd [7] was 2.88 nM, the Kd [8] was 20.6 nM and the Kd [9] was 17.5 nM. The Kd [10] was 2.91 nM, the Kd [11] was 32.6 nM and the Kd [12] was 3.21 nM. The Kd [13] was 1.61 nM, the Kd [14] was 6540 nM and the Kd [15] was 311 nM. The Kd [16] was 29.2 nM, the Kd [17] was 3.2 nM and the Kd [18] was 3.13 nM. The Kd [19] was 0.434 nM, the Kd [20] was 4.62 nM and the Kd [21] was 75 nM. For the same substance, the Kd [22] was 90.7 nM, the Kd [23] was 50.5 nM and the Kd [24] was 174 nM. For the same substance, the Kd [25] was 8.28 nM, the Kd [26] was 7.86 nM and the Kd [27] was 31.4 nM. It also gave a Kd [28] of 7.52 nM, a Kd [29] of 27.9 nM and a Kd [30] of 56.9 nM. It also gave a Kd [31] of 14.8 nM, a Kd [32] of 158 nM and a Kd [33] of 2.93 nM. It also gave a Kd [34] of 80 nM, a Kd [35] of 54.3 nM and a Kd [36] of 6.86 nM. The Kd [37] was 5.26 nM, the Kd [38] was 32.3 nM and the Kd [39] was 3.56 nM. For the same substance, the Kd [40] was 3.05 nM, the Kd [41] was 1.96 nM and the Kd [42] was 18.4 nM. For the same substance, the Kd [43] was 2.58 nM, the Kd [44] was 4.78 nM and the Kd [45] was 3.74 nM. It also gave a Kd [46] of 1.7 nM, a Kd [47] of 5.84 nM and a Kd [48] of 119 nM.
